The results in this text go back to US20030207791A1, “Materials and methods relating to the treatment of leukaemias” (priority 2000, published 2003).

In one test the target is PML-RAR (UniProt P29590). As to the kind of experiment: cell-based or functional assay.
Test [1] addresses nuclear corepressor (NCoR) (UniProt O75376). In words: cell-based or functional assay.

Chain of PML-RAR (from UniProt P29590 1-552; P10276 61-462) (P29590 other isoform, or with tags, fused parts or gaps limits assumed): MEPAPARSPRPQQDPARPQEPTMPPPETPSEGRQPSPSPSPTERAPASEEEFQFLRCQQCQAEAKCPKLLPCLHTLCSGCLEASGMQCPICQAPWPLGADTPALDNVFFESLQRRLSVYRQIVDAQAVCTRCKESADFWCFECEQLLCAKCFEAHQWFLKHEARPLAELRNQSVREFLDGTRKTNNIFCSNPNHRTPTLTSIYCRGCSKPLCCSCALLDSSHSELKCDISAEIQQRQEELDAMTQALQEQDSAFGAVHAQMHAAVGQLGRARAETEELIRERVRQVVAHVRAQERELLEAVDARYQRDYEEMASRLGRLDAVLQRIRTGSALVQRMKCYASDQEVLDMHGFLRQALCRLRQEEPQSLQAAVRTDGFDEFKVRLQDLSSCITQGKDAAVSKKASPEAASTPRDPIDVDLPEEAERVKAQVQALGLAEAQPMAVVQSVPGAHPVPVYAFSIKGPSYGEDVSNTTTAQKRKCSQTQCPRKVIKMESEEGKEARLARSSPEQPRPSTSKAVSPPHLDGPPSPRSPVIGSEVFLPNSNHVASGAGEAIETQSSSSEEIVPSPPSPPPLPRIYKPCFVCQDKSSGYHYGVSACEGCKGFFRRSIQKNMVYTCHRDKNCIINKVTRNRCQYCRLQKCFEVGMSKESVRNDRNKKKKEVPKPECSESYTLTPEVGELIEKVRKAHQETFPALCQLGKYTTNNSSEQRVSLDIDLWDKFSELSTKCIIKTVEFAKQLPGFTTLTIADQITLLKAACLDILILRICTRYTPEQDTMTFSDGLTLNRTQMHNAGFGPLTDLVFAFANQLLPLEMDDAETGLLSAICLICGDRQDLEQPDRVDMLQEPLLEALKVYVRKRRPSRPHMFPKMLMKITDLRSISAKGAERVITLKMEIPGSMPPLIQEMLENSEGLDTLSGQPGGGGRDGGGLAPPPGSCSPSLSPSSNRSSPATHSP
Chain of nuclear corepressor (NCoR) (O75376 whole entry): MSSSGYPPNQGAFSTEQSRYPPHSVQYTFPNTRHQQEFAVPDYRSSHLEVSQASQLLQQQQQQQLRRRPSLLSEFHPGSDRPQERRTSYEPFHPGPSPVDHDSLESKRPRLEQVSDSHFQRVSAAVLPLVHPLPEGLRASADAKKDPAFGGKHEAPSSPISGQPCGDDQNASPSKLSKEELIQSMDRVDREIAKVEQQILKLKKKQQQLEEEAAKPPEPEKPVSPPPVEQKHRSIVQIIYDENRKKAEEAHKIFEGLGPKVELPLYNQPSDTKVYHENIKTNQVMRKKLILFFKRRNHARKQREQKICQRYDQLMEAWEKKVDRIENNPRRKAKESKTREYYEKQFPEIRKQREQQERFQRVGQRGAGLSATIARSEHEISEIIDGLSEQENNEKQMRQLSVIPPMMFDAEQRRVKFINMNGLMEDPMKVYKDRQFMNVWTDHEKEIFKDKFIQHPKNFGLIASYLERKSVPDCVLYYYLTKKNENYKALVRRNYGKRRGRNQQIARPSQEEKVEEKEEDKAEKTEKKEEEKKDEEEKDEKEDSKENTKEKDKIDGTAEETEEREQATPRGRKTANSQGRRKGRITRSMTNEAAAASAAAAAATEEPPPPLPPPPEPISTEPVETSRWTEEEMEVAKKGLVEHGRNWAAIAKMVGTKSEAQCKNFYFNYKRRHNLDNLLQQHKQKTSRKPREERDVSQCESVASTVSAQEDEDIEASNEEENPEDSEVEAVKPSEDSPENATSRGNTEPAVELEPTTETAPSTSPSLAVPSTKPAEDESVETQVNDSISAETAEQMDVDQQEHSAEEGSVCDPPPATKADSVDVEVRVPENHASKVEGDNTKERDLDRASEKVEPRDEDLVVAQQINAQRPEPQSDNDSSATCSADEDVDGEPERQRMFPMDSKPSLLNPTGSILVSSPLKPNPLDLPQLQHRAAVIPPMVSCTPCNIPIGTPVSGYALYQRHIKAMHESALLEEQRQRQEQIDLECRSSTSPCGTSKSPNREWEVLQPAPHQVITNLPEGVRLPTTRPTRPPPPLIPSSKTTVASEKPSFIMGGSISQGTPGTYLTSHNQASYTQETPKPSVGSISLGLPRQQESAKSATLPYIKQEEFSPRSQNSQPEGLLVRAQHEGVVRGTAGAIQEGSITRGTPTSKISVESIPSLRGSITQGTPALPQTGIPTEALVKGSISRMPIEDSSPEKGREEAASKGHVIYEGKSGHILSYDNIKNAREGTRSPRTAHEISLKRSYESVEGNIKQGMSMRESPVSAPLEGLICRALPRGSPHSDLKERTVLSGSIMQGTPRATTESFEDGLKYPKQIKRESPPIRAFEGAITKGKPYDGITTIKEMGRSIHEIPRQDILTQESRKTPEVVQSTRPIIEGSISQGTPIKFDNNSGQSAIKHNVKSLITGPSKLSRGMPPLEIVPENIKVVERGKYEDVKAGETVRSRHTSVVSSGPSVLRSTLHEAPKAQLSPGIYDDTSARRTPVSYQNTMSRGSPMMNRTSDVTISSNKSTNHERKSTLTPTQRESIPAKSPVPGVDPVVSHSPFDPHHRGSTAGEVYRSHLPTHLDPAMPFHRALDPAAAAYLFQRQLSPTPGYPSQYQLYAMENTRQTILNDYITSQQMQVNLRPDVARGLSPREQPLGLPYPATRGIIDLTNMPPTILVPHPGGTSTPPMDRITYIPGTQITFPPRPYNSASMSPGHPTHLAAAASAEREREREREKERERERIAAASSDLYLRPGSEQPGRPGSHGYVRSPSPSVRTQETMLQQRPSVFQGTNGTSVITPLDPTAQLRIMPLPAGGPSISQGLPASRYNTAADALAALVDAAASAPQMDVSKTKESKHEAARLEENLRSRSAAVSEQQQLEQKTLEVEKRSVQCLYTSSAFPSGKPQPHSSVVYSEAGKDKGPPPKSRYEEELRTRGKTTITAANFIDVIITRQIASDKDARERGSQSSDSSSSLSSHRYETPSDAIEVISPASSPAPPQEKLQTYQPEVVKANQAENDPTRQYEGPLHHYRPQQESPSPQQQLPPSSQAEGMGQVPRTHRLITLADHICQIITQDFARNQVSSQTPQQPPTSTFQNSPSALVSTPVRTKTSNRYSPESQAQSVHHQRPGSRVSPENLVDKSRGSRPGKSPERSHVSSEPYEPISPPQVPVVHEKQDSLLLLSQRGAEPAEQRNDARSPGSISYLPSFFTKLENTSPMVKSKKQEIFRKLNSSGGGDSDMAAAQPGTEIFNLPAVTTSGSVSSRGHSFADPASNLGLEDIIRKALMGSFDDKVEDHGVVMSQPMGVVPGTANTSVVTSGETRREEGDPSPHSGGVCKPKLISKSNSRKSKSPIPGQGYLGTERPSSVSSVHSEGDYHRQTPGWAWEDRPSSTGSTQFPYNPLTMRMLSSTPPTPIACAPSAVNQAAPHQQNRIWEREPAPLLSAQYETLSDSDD
Chain of PML-RAR (UniProt P29590) (P29590 other isoform, or with tags, fused parts or gaps limits assumed): as the sequence (P29590 other isoform, or with tags, fused parts or gaps limits assumed) above

In the test with PML-RAR, “coiled coil of PML (RBCC) (from UniProt P29590 1-360)” registered a percentage of differentiated, CD14+ U937 cells after vitamin D and TGFβ, PML-RAR induced (% CD14+ cells) of 70.
As to “PML-RAR (from UniProt P29590 1-552; P10276 61-462)”, the transcriptional repression of GAL4-VP16 activation of the RARE-G5-TATA reporter in HeLa cells, 50 ng expression vector in test [1] lay within 30 to 40%.
